# Data published in the supplement of paper PMC12764529.
# ± gives the half width of the 95% confidence interval.
# Test: folding stability dG unfold from chymotrypsin proteolysis; higher = more stable
# Method in brief: (§1)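 How resistant each design was to proteolysis was captured as K50, inferred by Bayesian fitting of sequencing counts. Unfolding free energy was then derived relative to a sequence-predicted unfolded-state K50 and a shared folded-state K50, per protease or combined. Digestion used trypsin and chymotrypsin at 11 threefold-diluted concentrations plus a no-protease condition, on mini-proteins under 80 residues without cysteine in a PA-tagged cDNA display construct. Designs were kept only when AlphaFold2 dimer inter-PAE was above 15.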
row,Sequence,folding stability dG unfold
1,SMKIEVEKLEDGTYVITIEDPGEDDIPVTYKAVVFVDPETGKVYVDRNIEDPNVPPELKELFENFIPGIESA [r9_715_TrMRF],3.097 ± 0.018 kcal/mol
2,SSVTLVLEKPLPSGKRLVVVTTLKPEPARGTVRLDVTTTTYTFSKTENGEITTSSTTSTSTETVSPEELLSA [r9_1137_JUSTAS],2.48 ± 0.18 kcal/mol
3,SAGGPPGWKPVEMKITVMFDDPEEAAEKIKEEVRSHFPNIEITKVEVQRNPENNMYMVTVDIRMWVPSAGGS [r8_120_TrROS],3.37 ± 0.081 kcal/mol
4,SAGGLKIDEFERSPNQGRYYVTIKIYHPDNGKPWDIEVPFNPDNGRWSAEEIAKTIAKKFKLPPGFTISAGG [r13_362_TrROS],2.3 ± 0.08 kcal/mol
5,SAGGPNLYIFIKIEHKGQTVTFMYPVPPGNLEKLVDEIASMGFPEIKIEEIYIFPPNGWIPVTVRLPSAGGS [r8_219_TrROS],3.71 ± 0.041 kcal/mol
6,SAGGMYMVQIEVRSPDKEIPFMIMVPEDDPKKIVDDIKEEIAEEAGADNVNIKIEVYRMDENGEWEWISAGG [r13_877_TrROS],1.01 ± 0.13 kcal/mol
7,SAGGSAGGSAGGGMARAEKLPSSWTLVSVTPRDGSTVVTYKLPDGSTLTLDLRPDSYDGASAGGSAGGSAGG [r7_775_JUSTAS],1.46 ± 0.15 kcal/mol
8,SAGGAFPPGEKVEVRIEVVELPGEGTYLLRAYLPGGKLLWERPFPEGELEAFAEEFRSLGFDTVEVTPSAGG [r13_765_TrMRF],2.736 ± 0.0075 kcal/mol
9,SAGGSAGGSSPVPVKVSANSVEPGESSSSNINIPKEALEKDSLTPEELKKILQKQGPNVTITGSAGGSAGGS [r20_221_JUSTAS],0.124 ± 0.049 kcal/mol
10,SAGGSAGGSAGGPDFKIEPVEKKGNYELYKAYIPETGEEFFLVYYPNPKEVKIYPSDYLSAGGSAGGSAGGS [r10_172_TrMRF],1.52 ± 0.034 kcal/mol
11,SAGGSFVKIKVKFDNKPIEIPIPDFVQKVEGDYQTIVFPEGDADSVLKKLKEASKKIEIVKVEVVKPSAGGS [r8_490_TrMRF],0.618 ± 0.13 kcal/mol
12,SANIQIMIEDWDPERGWIRISIQVDKGDPDKPITPELVNNIRELFRFRGIEVNIEVHPDGMVNIEIPIPSAG [r14_865_TrROS],4.59 ± 0.051 kcal/mol
13,SAGGMKIKLKNGKVIEIKKKPGYIEIKIIDKKTKKVYTYTFKSKDGKISLEDLAKKLAELPNIKEIIPSAGG [r13_579_TrROS_Hall],4.48 ± 0.15 kcal/mol
14,SAGGMSPDQIWKAKLLSRKKGKNGSVYNIVIYNPDNPKPIFINKPGDNPEDVLKELEELVKKGPIDLESAGG [r13_286_TrMRF],0.549 ± 0.21 kcal/mol
15,SIIRSPNGYWIVITVKVPEGAKPFPPGFEVQRDPEKGTLTIIMPMPPDDIRRLAEHPGVEIEKIEFIPWDSA [r9_827_TrROS],2.05 ± 0.021 kcal/mol
16,SAGGSAGGSVIPYFDENAVALLVKGPGDYYRIIFKPNDGYLVLLLPKEVIKSKPIPIGELLKKSAGGSAGGS [r20_90_TrMRF],1.33 ± 0.38 kcal/mol

# Test: folding stability dG unfold (combined trypsin and chymotrypsin); higher = more stable
# Method in brief: as §1
row,Sequence,folding stability dG unfold
1,SAGGSAGGSPESVTFPVGDYLVTVTRNPEDGSLTVTVYDPKTGKPIVLPPEVLAENPDLAENLSAGGSAGGS [r12_817_TrMRF],2.68 ± 0.056 kcal/mol
2,SAGMTFKNPGSDKTLTYEPETGAITLHNGDSVSTLPLPPGTSFTVTVDPEKGVVTITVPETGATITLPLSAG [r5_858_JUSTAS],0.803 ± 0.11 kcal/mol
3,SKAEIVEIKIEKVEKDGKKYYKVKIKVKTKDGKIKEIEITFPEGMSEEEIKKKIEELAKELGIEKVEIKPSA [r9_1203_TrROS_Hall],4.53 ± 0.67 kcal/mol
4,SAGGNFVVPFKDPEQVKEIREAAEKGEEIEITPPDGKKFTFKVESVEVDPESGRVVIKLPSGKEFPLSAGGS [r16_254_TrMRF],0.617 ± 0.16 kcal/mol
5,MKVEIVEVEYDEETKRVRVKLKVDGKLVEIEFDLESGKVTVRIYEDGEEIEIEAESVEDALEKAKELVKEKS [r1_177_TrROS_Hall],1.93 ± 0.28 kcal/mol
6,SAGGSAGGSAGGMVETGTPSSGSSSPSYVLTTTTLTLLDGTFVPTTTTTTFSDPAEAAAASAGGSAGGSAGG [r7_896_JUSTAS],1.14 ± 0.086 kcal/mol
7,SAGGSPGSSLIGKKKLTIKVDNKDVEVEVTTSLSFLPSNQVTTSTEVKITLPNGKKIPKSLVEKLLSAGGSA [r2_363_JUSTAS],0.742 ± 0.12 kcal/mol
8,SAGGSAGGSDDDENQKENQKAKPIKLEPIVEITVPYPDGFSLTVPIWRWPDGGIGIELEIFPLGSAGGSAGG [r6_326_TrROS],1.3 ± 0.37 kcal/mol
9,SAGGSAGGSNKKKKTIMFTIKLDVPEGTPTAEEIADELKELSPNVEIDNIMFTPNEVYIMIKVSAGGSAGGS [r12_454_TrROS],1.61 ± 0.18 kcal/mol
10,SAGGSAGGSASTTVTYVEIKVTNPNPPGTPVAEYLIPLSEITEEMIEKLEKEGGLKVEVTVVLSAGGSAGGS [r12_398_JUSTAS],1.41 ± 0.058 kcal/mol
11,MSEEELRELEERLAAPGPVEVRVEVEVREEEGDEPVFVFRVRYYRPEPGEELGEEEIVVPEEELEELLRELS [r1_415_TrMRF],1.93 ± 0.15 kcal/mol
12,SAGMVEVYEEDKRLLVRVTLESPDPSTITEETVRELLERLGLPVEELEISPTALPNGSYTVTAEVVVLPSAG [r5_922_JUSTAS],1.59 ± 0.17 kcal/mol
13,SAGGSAGGKKKVLLVKVEIELPNGEKLELVAESEEEALEALKKLLEKKGLKIKKVEIVELEEKESAGGSAGG [r6_405_TrROS_Hall],2.17 ± 0.077 kcal/mol
14,SAGGSAGGSAGGKVKVLSVFELPNNKRLVLIETPSGKKILIVTDSSDPDKVKEKAKEIASAGGSAGGSAGGS [r10_472_TrMRF],1.73 ± 0.037 kcal/mol
15,SAGGSAGGSAGGHYIRAEIEIKYEHPGNGQEQTMTIPIEIPIPPPPPVSAEDRAKQNGIGSAGGSAGGSAGG [r7_79_TrROS],0.669 ± 0.065 kcal/mol
16,SMKIEVEKLEDGTYVITIEDPGEDDIPVTYKAVVFVDPETGKVYVDRNIEDPNVPPELKELFENFIPGIESA [r9_715_TrMRF],2.92 ± 0.056 kcal/mol

row,Sequence,folding stability dG unfold
1,SSVTLVLEKPLPSGKRLVVVTTLKPEPARGTVRLDVTTTTYTFSKTENGEITTSSTTSTSTETVSPEELLSA [r9_1137_JUSTAS],2.49 ± 0.29 kcal/mol
2,SAGGPPGWKPVEMKITVMFDDPEEAAEKIKEEVRSHFPNIEITKVEVQRNPENNMYMVTVDIRMWVPSAGGS [r8_120_TrROS],3.37 ± 0.11 kcal/mol
3,SAGGLKIDEFERSPNQGRYYVTIKIYHPDNGKPWDIEVPFNPDNGRWSAEEIAKTIAKKFKLPPGFTISAGG [r13_362_TrROS],2.05 ± 0.062 kcal/mol
4,SAGGPNLYIFIKIEHKGQTVTFMYPVPPGNLEKLVDEIASMGFPEIKIEEIYIFPPNGWIPVTVRLPSAGGS [r8_219_TrROS],3.4 ± 0.14 kcal/mol
5,SAGGMYMVQIEVRSPDKEIPFMIMVPEDDPKKIVDDIKEEIAEEAGADNVNIKIEVYRMDENGEWEWISAGG [r13_877_TrROS],1.02 ± 0.11 kcal/mol
6,SAGGSAGGSAGGGMARAEKLPSSWTLVSVTPRDGSTVVTYKLPDGSTLTLDLRPDSYDGASAGGSAGGSAGG [r7_775_JUSTAS],1.1 ± 0.075 kcal/mol
7,SAGGAFPPGEKVEVRIEVVELPGEGTYLLRAYLPGGKLLWERPFPEGELEAFAEEFRSLGFDTVEVTPSAGG [r13_765_TrMRF],2.69 ± 0.035 kcal/mol
8,SAGGSAGGSSPVPVKVSANSVEPGESSSSNINIPKEALEKDSLTPEELKKILQKQGPNVTITGSAGGSAGGS [r20_221_JUSTAS],-0.0407 ± 0.23 kcal/mol
9,SAGGSAGGSAGGPDFKIEPVEKKGNYELYKAYIPETGEEFFLVYYPNPKEVKIYPSDYLSAGGSAGGSAGGS [r10_172_TrMRF],1.29 ± 0.049 kcal/mol
10,SAGGSFVKIKVKFDNKPIEIPIPDFVQKVEGDYQTIVFPEGDADSVLKKLKEASKKIEIVKVEVVKPSAGGS [r8_490_TrMRF],0.354 ± 0.12 kcal/mol
11,SANIQIMIEDWDPERGWIRISIQVDKGDPDKPITPELVNNIRELFRFRGIEVNIEVHPDGMVNIEIPIPSAG [r14_865_TrROS],4.14 ± 0.094 kcal/mol
12,SAGGMKIKLKNGKVIEIKKKPGYIEIKIIDKKTKKVYTYTFKSKDGKISLEDLAKKLAELPNIKEIIPSAGG [r13_579_TrROS_Hall],4.27 ± 0.32 kcal/mol
13,SAGGMSPDQIWKAKLLSRKKGKNGSVYNIVIYNPDNPKPIFINKPGDNPEDVLKELEELVKKGPIDLESAGG [r13_286_TrMRF],0.468 ± 0.18 kcal/mol
14,SIIRSPNGYWIVITVKVPEGAKPFPPGFEVQRDPEKGTLTIIMPMPPDDIRRLAEHPGVEIEKIEFIPWDSA [r9_827_TrROS],1.74 ± 0.069 kcal/mol
15,SAGGSAGGSVIPYFDENAVALLVKGPGDYYRIIFKPNDGYLVLLLPKEVIKSKPIPIGELLKKSAGGSAGGS [r20_90_TrMRF],0.948 ± 0.43 kcal/mol
